Reference: the nanobody polyreactivity screen of Harvey et al. (2022)

Assay: yeast display, Sf9 membrane polyspecificity reagent, FACS + sequencing; frameworks hold sequencing errors
Outline: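 Polyreactivity labels are assigned by the sorting gate from which each nanobody was recovered. The gates were low and high (top ~1%), set on anti-HA fluorescence for expression and streptavidin fluorescence for reagent binding. Before sorting, galactose-induced (36–48 hours) yeast display cells were stained for 1 hour at 4 °C with 10% biotinylated, detergent-solubilized Sf9 membrane reagent.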

Row | Sequence | polyreactivity (PSR sort gate)
1 | QVQLVESGGGLVQAGGSLRLSCAASGRIFDANVMGGYRQAPGKERELVAAISSGGRTKYADSVKGRFTISRDNAKNTVYLQMNSLKPEDTAVYYCAKKHSPLYDYWGQGTQVTVSS | low polyreactivity
2 | QVQLVESGGGLVQAGGSLRLSCAASGRIFDDNAMGWYRQAPGKERELVASITVSTGSTYYADSVKGRFTISRDNAKNTVYLQMNSLKPEDTAVSYCAAPYITPYGTYVFSSDYWGQGTQVTVSS | low polyreactivity
3 | QVQLVESGGGLVQAGGSLRLSCAASGRIFDFYAMGWYSQAPGKERELVAAIASSVGNTYYADSVTGRFTISRDNAKNTVSLQMISLKPEDTAVYYCADYSYVRSSYEVEYDYWGQGTQVTVSS | low polyreactivity
4 | QVQLVESGGGLVQAGGSLRLSCAASGRIFDGNAMGWYRQAPWKERELVAAINRSGGRTYYADSVKGRFTISRDNAKNTVYLQMNSLKPEDTAVYYCATPYAGGTPADPGYDYWGQGTQVTVSS | high polyreactivity
5 | QVQLVESGGGLVQAGGSLRLSCAASGRIFDGYAMGWYRQAPGKERELVAAINRSGSSTYYADSVKGRFTISRDNAKNTVYLQMNSLKPEDTAVYYCNARSGNRYGPRYDYWGQGTQVTVSS | high polyreactivity
6 | QVQLVESGGGLVQAGGSLRLSCAASGRIFDINAMGWYRQAPGKESELVAAISRGGSTYYADSVKGRFTISRDNAKHTVDLQMNSLKPQDTAVYYCNKYRYRGSTVFDGYDYWGQGTQVTVSS | high polyreactivity
7 | QVQLVESGGGLVQAGGSLRLSCAASGRIFDIYAMGWYRQAPGKERELVAAITRGGSTYADSVKGRFTISRDNAKNTVYLQMNSLKPEDTAVYYCAARPRLPRQIGGDGHLDDYWGQGTQVTVSS | high polyreactivity
8 | QVQLVESGGGLVQAGGSLRLSCAASGRIFDIYAMGWYRQAPGKERELVAAITSGGSTYYADSVKGRFTNSRDNAKNTVYFQMNILKPEYTAVYYCAADSVLLKDTGYDYWGKGTQVTVSS | low polyreactivity
9 | QVQLVESGGGLVQAGGSLRLSCAASGRIFDIYTMGWYRQAPGKERELVASITKRGGSTYYADSVKGRFTISRDNAKNTVYLQMNSLKPEDTAVYYCNVAGKQKPYYVTTRLDYWGQGTQVTVSS | high polyreactivity
10 | QVQLVESGGGLVQAGGSLRLSCAASGRIFDKNAMGWYRQAPGKERELVAAISGGGRTYYADSVKGRFTISRDNAKNTVYLLMNSLKPEDTAVYYCNVPYYYTRGSYGYWGQGTQVTVSS | low polyreactivity
11 | QVQLVESGGGLVQAGGSLRLSCAASGRIFDKYAMGWYRQAPGKERYLVAAIDWSGGSTYYADSVKGRFTISRDNAKNTVYLQMNRLKPEDNAVYYCAAYWYYEDGQSEARLYGYDYWGQGTQVTVSS | low polyreactivity
12 | QVQLVESGGGLVQAGGSLRLSCAASGRIFDLNAMGWYSQAPGKERELVAAITTNDGDTYYADSVKGRFTISRDTAKNTVYLQMNSLKPEDTAVYYCAAVSGSTSEYEYWGQGTEVTVSS | low polyreactivity
13 | QVQLVESGGGLVQAGGSLRLSCAASGRIFDLNTMGWYRQAPGKERELVAAISSGGSTYYADSVNGRFTISRDNAKNTVYIQMNSLKPEDTAVYYCADAKIRGYLIRMYWGQRTQVTVSS | low polyreactivity
14 | QVQLVESGGGLVQAGGSLRLSCAASGRIFDNNAMGWYIQAPGKERELVAAIDWPGGSTDYADSVKGRFTISRDNAKNTVYLQMNSLIPEDTAVYYCVAGNVPYWHGNSYDYWGQGTQVTVSS | low polyreactivity
15 | QVQLVESGGGLVQAGGSLRLSCAASGRIFDNYAMGWYRQAPGKDREWVAAISSRGRSTYYADSVKGRFTISRDNAKNTVYLQMNSLKPEDTAVYYCAKDLGYRGRYNYWGQGTQVTVSS | low polyreactivity
16 | QVQLVESGGGLVQAGGSLRLSCAASGRIFDQNAMGWYRQAPGKERELVAAITWSGGSTNYADSVKGRFTISRDNAKNTVYLQMNSLKPEDTAVYYCATDGKPSFYSFDYWGQGTQVTVSS | low polyreactivity
17 | QVQLVESGGGLVQAGGSLRLSCAASGRIFDRNAMGWYRQAPGKERELVARIDPGDDTNYADSVKGRFTISRDNAKNTVYLQMNSLKPEDTAVYYCAADGVVVVAADMYYWGQGTQVTVSS | low polyreactivity
18 | QVQLVESGGGLVQAGGSLRLSCAASGRIFDRYAMGWYRQAPGKERELVAAISDRGGSTYYADSVKGRFTISRDNAKNTVYLQMNSLKPEDTAVFYCAKGPSGVRTYREYDSWGQGTQVTVSS | low polyreactivity
19 | QVQLVESGGGLVQAGGSLRLSCAASGRIFDSNAMGWYRQAPGKERELVAAITYSGGGTFYADSVKGRFTISRDNAKNTVYLQMNRLKPEDTAVYYCNAGYFTEYNSWGQGTQVTVSS | high polyreactivity
20 | QVQLVESGGGLVQAGGSLRLSCAASGRIFDTNVMGWYRQAPGKERELVAAISSGGSTYYADSVKGRFTISRDNAKNTVYLQMNSLKPEDTAVYFCAAESRTSRARRYYWGQGTQVTVSS | high polyreactivity
21 | QVQLVESGGGLVQAGGSLRLSCAASGRIFDVNAMGWYRQAPGKERELVAAITYSDGSTYYADSVTGRFTISRDNAKNTVYLQMNSLKPEDTAVDYCAATQEPVTPQPYGYWGQGTQVTVSS | low polyreactivity
22 | QVQLVESGGGLVQAGGSLRLSCAASGRIFDVYAMGWYRQAPGKERELVAGITYSGGSTYYADSVKGRFTISRDNAKNTVYVQMNSLKPEDTAVYYCAALNGDPYVQLLEDYWGQGTQVTVSS | low polyreactivity

Row | Sequence | polyreactivity (PSR sort gate)
23 | QVQLVESGGGLVQAGGSLRLSCAASGRIFDYNGMGWYRQAPGKERELVAAIRLSDGSTYYADSVKGRFTISRDNAKNTVYLQMNSQKPEDTAVYYCADVGKNRSWYDYWGQGSQVTVSS | high polyreactivity
24 | QVQLVESGGGLVQAGGSLRLSCAASGRIFDYNTMGWYRQAPGKEREFVAAITSSGGRTYYADSVKGRFTISRDNAKNTVYLQMNSLKPEDTAVYYCAARLNIYYRRMGYWGQGTQVTVSS | high polyreactivity
25 | QVQLVESGGGLVQAGGSLRLSCAASGRIFDYYAMGWYRQAPGKERELVAAISSSVGNTYYADSVKGRFTISRDNAKNTVYLQMNSLKPEDTAVYYFADYSYVRSSYEVEDDYWGQGTQVTVSS | low polyreactivity
26 | QVQLVESGGGLVQAGGSLRLSCAASGRIFDYYAMGWYRQAPGKERELVATITSGSRTYYADSVKGRFTISRDNAKNTVYLQMNSLKPEDTAVYYCNTVSFKRLGWRYDYWGQGTQVTVSS | high polyreactivity
27 | QVQLVESGGGLVQAGGSLRLSCAASGRIFDYYTMGWYRQAPGKERELVAGINSGDSTYYADYVKGRFTISRDNAKNTVYLQMNSLKPEDTAVYYCAASADWWYEYWGQGTQVTVSS | high polyreactivity
28 | QVQLVESGGGLVQAGGSLRLSCAASGRIFEIYAMGWYRQAPGKERELVAAITDSGGSTYYAYSVKGRFTISRDNAKNTVYLQINSLKPEDTAVYYCAAVGYSYETWLFYYWGQGTQVTVSS | low polyreactivity
29 | QVQLVESGGGLVQAGGSLRLSCAASGRIFEKYAMRWYREAPGKERELVAAMTRSGGRTYYADSVKGRFTISRDNAKNTVYLQMNSQKPEDTAVYYCAARYVSRFDWGQGTQVTVSS | high polyreactivity
30 | QVQLVESGGGLVQAGGSLRLSCAASGRIFEPYAMGWYRQAPGKERELVAAISWSGTSTRYADSVKGRFTISRDNAKNTVYLQMNSLKPEDTAVYYCAARGNNPARGGYWGQGTQVTVSS | high polyreactivity
31 | QVQLVESGGGLVQAGGSLRLSCAASGRIFERNAKGWYRQAPGKERELVAALTYNGGRTYYADSVKGRFTITRDNAKNTVYLQLNSLKPEDTAVYNCNAQSRVTRSSYRGSPRYDYWGQGTQVTVSS | high polyreactivity
32 | QVQLVESGGGLVQAGGSLRLSCAASGRIFERYAMGRYRQAPGKERELVAAISVSGSGTYYADSVKGRFTISRDNAKNTVYLQINSLKPEDTAVYYCAADASLLGLYYYLFYLEVNYWGQGTQVTVSS | low polyreactivity
33 | QVQLVESGGGLVQAGGSLRLSCAASGRIFERYAMGWYRQAPGKERELVAGISISGGGTYYADSVKGRFTISRDIAKNTVYFQMNSLKPEDTAVYYCAATFPREEYGYWGQGTQVTVSS | low polyreactivity
34 | QVQLVESGGGLVQAGGSLRLSCAASGRIFERYAMGWYRQAPGKERELVAGISISGGGTYYADSVKGRFTISRDNAKNTFYLQMNSLNPEDTAVYYCSATFPREEYGYWGQGTQVTVSS | low polyreactivity
35 | QVQLVESGGGLVQAGGSLRLSCAASGRIFEYNAMGWYRQAPGKERELVAAITSDGSTNYADSVKGRFTISRDNEKNTVYLQMNSLKPEDTAVYYCNTRYSLYTKYAYYDEHDYWGQGTQVTVSS | low polyreactivity
36 | QVQLVESGGGLVQAGGSLRLSCAASGRIFEYYAMGWYRQAPGKERELVAAIRSGGRTYYADSVKGRFTISRDNAKNTVYLQMNSLKPEDTAVYYCNKLYRGGYGYWGQGTQVTVSS | high polyreactivity
37 | QVQLVESGGGLVQAGGSLRLSCAASGRIFFIYAMGWYRQAPGKERELVAAISYDSGSTYYADSVKGRFTISRDNAKNTVSLQMNSLKPEDTAVYYCAAEWGLVIYSTYGYDYWGQGTQVTVSS | low polyreactivity
38 | QVQLVESGGGLVQAGGSLRLSCAASGRIFFLYAMGWSRQAPGKERELVAAITKSGGSTYADSVKGRYTISRDNAKNPVYLQMNSLKPEDTAVYYCATENTDSRDSGYIVKYGSDYWGQRTQVTVSS | low polyreactivity
39 | QVQLVESGGGLVQAGGSLRLSCAASGRIFFNSAMGWYRQAPGKERELVAAIRGGGSTYADSVKGRFTISRDNAKNTVYLQMNSLKPEDTAVYYCAARYSGSPYHTRRYYYWGQGTQVTVSS | high polyreactivity
40 | QVQLVESGGGLVQAGGSLRLSCAASGRIFFNYAMGWYRQAPGKERELVAAIRGGGSTYADSVKGRFTISRDNAKNTVYLQMNSLKPEDTAVYYCAARYSGSPYHTRRYYYWGQGTQVTVSS | high polyreactivity
41 | QVQLVESGGGLVQAGGSLRLSCAASGRIFFRYAMGWYRPAPGKEREFVAAISGSAGSTYYADSVKGRFKISRDNAKNTVYLQMNSLKPEDTAVYYCAARKAKVSNGLKYDYWGQGTQVTVSS | high polyreactivity
42 | QVQLVESGGGLVQAGGSLRLSCAASGRIFFSYAMGWYRQAPGKERELVAAITSGGSTNYADSVKGRFTISRDNAKNTVYLQMNSLKPEDTAVYYCNKARSSGYNFGYWGQGTQVTVSS | low polyreactivity
43 | QVQLVESGGGLVQAGGSLRLSCAASGRIFFTNAMGWYSQAPGKEREFVAAISKSGARTYYADSVKGRFTISRDNAKNTVYLQMISLKPEDTAVYYCAADVSVYGYYYWGQGTQVTVSS | high polyreactivity
